Laboratory results from patent US20100260668A1 (published 2010).
Values belong to the binder of their own block, whether it stands above or below them.

Legend:
[1] = molecular target: VEGF (VEGF 1-165 aa, R&D Systems 293-VE-010) (UniProt P15692 27-191); test: Direct bind ELISA, VEGF coated on plate;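 also: ELISA screening of antibodies for binding to the plate-coated target antigen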
[2] = molecular target: T1, DLL4 (DLL ECD His tag, R&D 1506-D4-050) (UniProt Q9NR61 27-529); test: BIACORE (SPR), DVD-Ig against DLL4
T1 construct: extracellular domain; bought

VEGF (VEGF 1-165 aa, R&D Systems 293-VE-010), sequence (P15692 other isoform, or with tags, fused parts or gaps limits assumed): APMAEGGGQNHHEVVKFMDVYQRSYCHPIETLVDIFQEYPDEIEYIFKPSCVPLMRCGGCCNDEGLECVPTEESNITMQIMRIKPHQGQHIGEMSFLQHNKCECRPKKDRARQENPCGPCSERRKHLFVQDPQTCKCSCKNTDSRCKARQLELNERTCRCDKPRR

B2: DVD465 (bispecific antibody, IgG1)
VH: EVQLVESGGGLVQPGGSLRLSCAASGFTFTDNWISWVRQAPGKGLEWVGYISPNSGFTYYADSVKGRFTISADTSKNTAYLQMNSLRAEDTAVYYCARDNFGGYFDYWGQGTLVTVSSASTKGPEVQLVESGGGLVQPGGSLRLSCAASGFTISDYWIHWVRQAPGKGLEWVAGITPAGGYTYYADSVKGRFTISADTSKNTAYLQMNSLRAEDTAVYYCARFVFFLPYAMDYWGQGTLVTVSS
VL: DIQMTQSPSSLSASVGDRVTITCRASQDVSTAVAWYQQKPGKAPKLLIYSASFLYSGVPSRFSGSGSGTDFTLTISSLQPEDFATTYYCQQSYTGTVTFGQGTKVEIKRTVAAPDIQMTQSPSSLSASVGDRVTITCRASQDVSTAVAWYQQKPGKAPKLLIYSASFLYSGVPSRFSGSGSGTDFTLTISSLQPEDFATYYCQQSYTTPPTFGQGTKVEIKR
notes: HC linker short, LC linker short; also called DVD465H; DVD465L
EC50 [1]: 396 nM

B4: DVD471 (bispecific antibody, IgG1)
VH: EVQLVESGGGLVQPGGSLRLSCAASGFTFTDNWISWVRQAPGKGLEWVGYISPNSGFTYYADSVKGRFTISADTSKNTAYLQMNSLRAEDTAVYYCARDNFGGYFDYWGQGTLVTVSSASTKGPSVFPLAPEVQLVESGGGLVQPGGSLRLSCAASGFTISDYWIHWVRQAPGKGLEWVAGITPAGGYTYYADSVKGRFTISADTSKNTAYLQMNSLRAEDTAVYYCARFVFFLPYAMDYWGQGTLVTVSS
VL: DIQMTQSPSSLSASVGDRVTITCRASQDVSTAVAWYQQKPGKAPKLLIYSASFLYSGVPSRFSGSGSGTDFTLTISSLQPEDFATTYYCQQSYTGTVTFGQGTKVEIKRTVAAPSVFIFPPDIQMTQSPSSLSASVGDRVTITCRASQDVSTAVAWYQQKPGKAPKLLIYSASFLYSGVPSRFSGSGSGTDFTLTISSLQPEDFATYYCQQSYTTPPTFGQGTKVEIKR
notes: HC linker long, LC linker long; also called DVD471H; DVD471L
EC50 [1]: 30.1 nM

B8: DVD473 (bispecific antibody, IgG1)
VH: EVQLVESGGGLVQPGGSLRLSCAASGFTFTDNWISWVRQAPGKGLEWVGYISPNSGFTYYADSVKGRFTISADTSKNTAYLQMNSLRAEDTAVYYCARDNFGGYFDYWGQGTLVTVSSASTKGPSVFPLAPEVQLVESGGGLVQPGGSLRLSCAASGFTINASWIHWVRQAPGKGLEWVGAIYPYSGYTNYADSVKGRFTISADTSKNTAYLQMNSLRAEDTAVYYCARWGHSTSPWAMDYWGQGTLVTVSS
VL: DIQMTQSPSSLSASVGDRVTITCRASQDVSTAVAWYQQKPGKAPKLLIYSASFLYSGVPSRFSGSGSGTDFTLTISSLQPEDFATTYYCQQSYTGTVTFGQGTKVEIKRTVAAPSVFIFPPDIQMTQSPSSLSASVGDRVTITCRASQVIRRSLAWYQQKPGKAPKLLIYAASNLASGVPSRFSGSGSGTDFTLTISSLQPEDFATYYCQQSNTSPLTFGQGTKVEIKR
notes: DVD-Ig, outer AB015 / inner AB071; HC linker long, LC linker long; also called DVD473H; DVD473L
EC50 [1]: 388 nM

B9: DVD467 (bispecific antibody, IgG1)
VH: EVQLVESGGGLVQPGGSLRLSCAASGFTFTDNWISWVRQAPGKGLEWVGYISPNSGFTYYADSVKGRFTISADTSKNTAYLQMNSLRAEDTAVYYCARDNFGGYFDYWGQGTLVTVSSASTKGPEVQLVESGGGLVQPGGSLRLSCAASGFTINASWIHWVRQAPGKGLEWVGAIYPYSGYTNYADSVKGRFTISADTSKNTAYLQMNSLRAEDTAVYYCARWGHSTSPWAMDYWGQGTLVTVSS
VL: DIQMTQSPSSLSASVGDRVTITCRASQDVSTAVAWYQQKPGKAPKLLIYSASFLYSGVPSRFSGSGSGTDFTLTISSLQPEDFATTYYCQQSYTGTVTFGQGTKVEIKRTVAAPDIQMTQSPSSLSASVGDRVTITCRASQVIRRSLAWYQQKPGKAPKLLIYAASNLASGVPSRFSGSGSGTDFTLTISSLQPEDFATYYCQQSNTSPLTFGQGTKVEIKR
notes: DVD-Ig, outer AB015 / inner AB071; HC linker short, LC linker short; also called DVD467H; DVD467L
EC50 [1]: 1810 nM

B10: DVD479 (bispecific antibody, IgG1)
VH: B8 VH
VL: B9 VL
notes: DVD-Ig, outer AB015 / inner AB071; HC linker long, LC linker short; also called DVD479H; DVD479L
EC50 [1]: 456 nM

B11: DVD485 (bispecific antibody, IgG1)
VH: B9 VH
VL: B8 VL
notes: DVD-Ig, outer AB015 / inner AB071; HC linker short, LC linker long; also called DVD485H; DVD485L
EC50 [1]: 121 nM

B12: DVD468 (bispecific antibody, human IgG1, kappa)
heavy: not shown
light: DIQMTQSPSSLSASVGDRVTITCRASQVIRRSLAWYQQKPGKAPKLLIYAASNLASGVPSRFSGSGSGTDFTLTISSLQPEDFATYYCQQSNTSPLTFGQGTKVEIKRTVAAPDIQMTQSPSSLSASVGDRVTITCRASQDVSTAVAWYQQKPGKAPKLLIYSASFLYSGVPSRFSGSGSGTDFTLTISSLQPEDFATTYYCQQSYTGTVTFGQGTKVEIKRTVAAPSVFIFPPSDEQLKSGTASVVCLLNNFYPREAKVQWKVDNALQSGNSQESVTEQDSKDSTYSLSSTLTLSKADYEKHKVYACEVTHQGLSSPVTKSFNRGEC
notes: DVD-Ig; N-term; VD VEGF (AB071), C-term; VD DLL4 (AB015); HC linker short, LC linker short; also called DVD-Ig DVD468; DVD468H
Kd [2]: 3.76 nM
koff [2]: 0.000219 s⁻¹
kon [2]: 58200 M⁻¹ s⁻¹

Other lines, results leading:

EC50 [1]: 2.61 nM
B1: DVD466 (bispecific antibody, IgG1)
VH: EVQLVESGGGLVQPGGSLRLSCAASGFTISDYWIHWVRQAPGKGLEWVAGITPAGGYTYYADSVKGRFTISADTSKNTAYLQMNSLRAEDTAVYYCARFVFFLPYAMDYWGQGTLVTVSSASTKGPEVQLVESGGGLVQPGGSLRLSCAASGFTFTDNWISWVRQAPGKGLEWVGYISPNSGFTYYADSVKGRFTISADTSKNTAYLQMNSLRAEDTAVYYCARDNFGGYFDYWGQGTLVTVSS
VL: DIQMTQSPSSLSASVGDRVTITCRASQDVSTAVAWYQQKPGKAPKLLIYSASFLYSGVPSRFSGSGSGTDFTLTISSLQPEDFATYYCQQSYTTPPTFGQGTKVEIKRTVAAPDIQMTQSPSSLSASVGDRVTITCRASQDVSTAVAWYQQKPGKAPKLLIYSASFLYSGVPSRFSGSGSGTDFTLTISSLQPEDFATTYYCQQSYTGTVTFGQGTKVEIKR
notes: HC linker short, LC linker short; also called DVD466H; DVD466L

EC50 [1]: 17.9 nM
B3: DVD474 (bispecific antibody, IgG1)
VH: EVQLVESGGGLVQPGGSLRLSCAASGFTINASWIHWVRQAPGKGLEWVGAIYPYSGYTNYADSVKGRFTISADTSKNTAYLQMNSLRAEDTAVYYCARWGHSTSPWAMDYWGQGTLVTVSSASTKGPSVFPLAPEVQLVESGGGLVQPGGSLRLSCAASGFTFTDNWISWVRQAPGKGLEWVGYISPNSGFTYYADSVKGRFTISADTSKNTAYLQMNSLRAEDTAVYYCARDNFGGYFDYWGQGTLVTVSS
VL: DIQMTQSPSSLSASVGDRVTITCRASQVIRRSLAWYQQKPGKAPKLLIYAASNLASGVPSRFSGSGSGTDFTLTISSLQPEDFATYYCQQSNTSPLTFGQGTKVEIKRTVAAPSVFIFPPDIQMTQSPSSLSASVGDRVTITCRASQDVSTAVAWYQQKPGKAPKLLIYSASFLYSGVPSRFSGSGSGTDFTLTISSLQPEDFATTYYCQQSYTGTVTFGQGTKVEIKR
notes: DVD-Ig, outer AB071 / inner AB015; HC linker long, LC linker long; also called DVD474H; DVD474L

EC50 [1]: 25.6 nM
B5: DVD468 (bispecific antibody, IgG1)
VH: EVQLVESGGGLVQPGGSLRLSCAASGFTINASWIHWVRQAPGKGLEWVGAIYPYSGYTNYADSVKGRFTISADTSKNTAYLQMNSLRAEDTAVYYCARWGHSTSPWAMDYWGQGTLVTVSSASTKGPEVQLVESGGGLVQPGGSLRLSCAASGFTFTDNWISWVRQAPGKGLEWVGYISPNSGFTYYADSVKGRFTISADTSKNTAYLQMNSLRAEDTAVYYCARDNFGGYFDYWGQGTLVTVSS
VL: DIQMTQSPSSLSASVGDRVTITCRASQVIRRSLAWYQQKPGKAPKLLIYAASNLASGVPSRFSGSGSGTDFTLTISSLQPEDFATYYCQQSNTSPLTFGQGTKVEIKRTVAAPDIQMTQSPSSLSASVGDRVTITCRASQDVSTAVAWYQQKPGKAPKLLIYSASFLYSGVPSRFSGSGSGTDFTLTISSLQPEDFATTYYCQQSYTGTVTFGQGTKVEIKR
notes: DVD-Ig, outer AB071 / inner AB015; HC linker short, LC linker short; also called DVD468H; DVD468L

EC50 [1]: 23 nM
B6: DVD480 (bispecific antibody, IgG1)
VH: B3 VH
VL: B5 VL
notes: DVD-Ig, outer AB071 / inner AB015; HC linker long, LC linker short; also called DVD480H; DVD480L

EC50 [1]: 28 nM
B7: DVD486 (bispecific antibody, IgG1)
VH: B5 VH
VL: B3 VL
notes: DVD-Ig, outer AB071 / inner AB015; HC linker short, LC linker long; also called DVD486H; DVD486L
